Data set [1] deals with the molecule itself. As to the kind of experiment: SEC; Superdex 200 Increase 10/300 GL; 200 μg of filtered antibody; DPBS, 0.5 mL/min; size from molecular weight calibration curves. Background: Size exclusion chromatography separates by hydrodynamic size, large species first.
A further data set concerns the target T1, recombinant uPAR-Biotin (human, UniProt Q03405 23-305, biotin).
T1 construct: May be one of the bought proteins (uPAR-His or uPAR-Fc) after biotinylation
The data set can be described thus: BLI; BLItz; streptavidin biosensors coated with 16.7 μg/mL recombinant uPAR-Biotin; 400nM, 200nM and 100nM of VH, VH-Fc, DbTE, association 2 min; dissociation in DPBS 4 min. The settings on record: both partners purified. On the technique in general: BLI is a label-free optical method that tracks binding on a fibre tip over time.

Data set [2] addresses T2, Human uPAR-His recombinant protein (human, UniProt Q03405 23-305).
T2 construct: also called recombinant human uPAR; CD87; source: bought: R&D system
The data set can be described thus: ELISA; uPAR-His coated at 50 ng/well at 4°C overnight; 3-fold serially diluted binders 1 hour at 37°C; VH detected by anti-FLAG M2-HRP, VH-Fc or DbTE by HRP goat anti-human IgG1 Fc. Particulars: both partners purified. On the technique in general: ELISA stands for enzyme-linked immunosorbent assay.

T1 sequence (Q03405 23-305): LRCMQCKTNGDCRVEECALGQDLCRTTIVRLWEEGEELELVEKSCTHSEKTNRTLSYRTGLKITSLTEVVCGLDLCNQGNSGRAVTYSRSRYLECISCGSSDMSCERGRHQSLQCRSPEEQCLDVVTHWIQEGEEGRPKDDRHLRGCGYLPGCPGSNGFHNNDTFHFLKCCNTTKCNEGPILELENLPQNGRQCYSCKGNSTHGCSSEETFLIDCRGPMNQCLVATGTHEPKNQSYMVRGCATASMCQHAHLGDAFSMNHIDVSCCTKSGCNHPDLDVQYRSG
T2 sequence (Q03405 23-305): as above

B1: VH 115 (VHH)
VHH: EVQLVESGGGLVQPGGSLRLSCKGSGFTFGDYAIGWVRQAPGQRLEWIGWINTNSGSPKYAQGFTGRFTISRDNSKNTLYLQMNSLRAEDTAVYYCATDVVVPWGQGSQVTVSS
notes: Human single VH domain antibody (not a camelid VHH); source: E.coli TopF expression system, purified on Ni-NTA columns
Usually stoichiometry N stands for a count of units in the complex or per binding partner. The Kd is a measure of binding affinity in units of concentration. Usually koff stands for a measure of how fast the partners let go of each other. The term kon denotes a measure of how fast the partners come together. By EC50 is commonly meant the concentration needed to bring the measured effect to its halfway point. With B1, the “stoichiometry N” value in data set [1] was 2. Besides, in the data set with recombinant uPAR-Biotin, the Kd came to 1.7 nM, the dissociation rate constant (koff) was determined as 3.6e-05 s⁻¹ and the kon worked out at 21000 M⁻¹ s⁻¹. Further, the EC50 in data set [2] turned out to be 34.2 ± 3.5 nM.

B2: VH-Fc 115 (Fc fusion, human)
VH: EVQLVESGGGLVQPGGSLRLSCKGSGFTFGDYAIGWVRQAPGQRLEWIGWINTNSGSPKYAQGFTGRFTISRDNSKNTLYLQMNSLRAEDTAVYYCATDVVVPWGQGSQVTVSS
notes: VH cloned into the pcDNA-IgG1 Fc vector; source: Expi293, transiently transfected, purified by protein A resin; not shown: Fc (human IgG1), C-terminal, kept
As for B2, in data set [1], the “stoichiometry N” value is 2. Moreover, in the data set with recombinant uPAR-Biotin, the Kd is 71.1 nM, the koff came out at 0.0024 s⁻¹ and the kon was 33000 M⁻¹ s⁻¹. For the same molecule, in data set [2], the EC50 worked out at 6.6 ± 0.2 nM.

B3: VH 3 (VHH)
VHH: EVQLVESGGGLVQPGGSLRLSCAASGFTFSRYWMSWVRQAPGKALEWIGEINHSGSTNYNPSLKSLVTISRDNSKNTLYLQMNSLRAEDTATYYCARSLVPALSYYYYYGMDVWGQGTTVTVSS
notes: Human single VH domain antibody (not a camelid VHH); Monomeric by SEC; also called clone 3; anti-uPAR VH 3; source: E.coli TopF expression system, purified on Ni-NTA columns
Take B3: in the data set with recombinant uPAR-Biotin, the Kd worked out at 17.1 nM, the koff stood at 0.0014 s⁻¹ and the kon is 79000 M⁻¹ s⁻¹. In addition, the EC50 in data set [2] was 12.1 ± 0.8 nM.

B4: VH-Fc 3 (Fc fusion, human)
VH: EVQLVESGGGLVQPGGSLRLSCAASGFTFSRYWMSWVRQAPGKALEWIGEINHSGSTNYNPSLKSLVTISRDNSKNTLYLQMNSLRAEDTATYYCARSLVPALSYYYYYGMDVWGQGTTVTVSS
notes: VH 3 domain, as m1; VH cloned into the pcDNA-IgG1 Fc vector; source: Expi293, transiently transfected, purified by protein A resin; not shown: Fc (human IgG1), C-terminal, kept
In the case of B4, in the data set with recombinant uPAR-Biotin, the Kd stood at 9.6 nM, the koff is 0.0012 s⁻¹ and the kon was found to be 120000 M⁻¹ s⁻¹. Moreover, the EC50 in data set [2] turned out to be 64.3 ± 2.3 nM.

The values above are taken from PMC10593477 (Frontiers in Oncology, 2023).
